According to the supplement of paper PMC9112550, “Optimization of the antimicrobial peptide Bac7 by deep mutational scanning” (BMC Biology, 2022):

Test system: Escherichia coli TOP10
Assay: shrunken log2 fold change of peptide-encoding DNA abundance (4.5 h post-induction vs induction); higher = less antimicrobial activity (less host growth inhibition)
Conditions: time post-induction: 4.5 h; library: site-saturation at positions 5, 18, 19, 20
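Also: peptides expressed intracellularly from a pBAD plasmid library in pooled LB shake-flask culture, induced with 0.3% L-arabinose, DNA abundance read by NGS, three biological replicates, DESeq2 with apeglm shrinkage.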

Sequence	shrunken log2 fold change
RRIRCRPPRLPRPRPRPQRQPRP	0.0683
RRIRARPPRLPRPRPRPGHEPRP	0.054
RRIRGRPPRLPRPRPRPLSWPRP	0.781
RRIRQRPPRLPRPRPRPFVVPRP	0.0366
RRIRLRPPRLPRPRPRPVIVPRP	-0.0265
RRIRTRPPRLPRPRPRPGGPPRP	0.257
RRIRDRPPRLPRPRPRPKMGPRP	-0.0622
RRIRNRPPRLPRPRPRPIDSPRP	-0.0173
RRIRNRPPRLPRPRPRPSPTPRP	0.156
RRIRARPPRLPRPRPRPWGAPRP	0.401
RRIRARPPRLPRPRPRPHLGPRP	0.0806
RRIRKRPPRLPRPRPRPSERPRP	0.317
RRIRKRPPRLPRPRPRPTSQPRP	0.149
RRIRDRPPRLPRPRPRPPKNPRP	0.344
RRIRMRPPRLPRPRPRPNGMPRP	0.185
RRIRFRPPRLPRPRPRPFEFPRP	-0.183
RRIRMRPPRLPRPRPRPQRTPRP	1.56
RRIRTRPPRLPRPRPRPPGEPRP	0.318
RRIRTRPPRLPRPRPRPVKHPRP	-0.411
RRIRVRPPRLPRPRPRPPTGPRP	0.245
RRIRKRPPRLPRPRPRPAINPRP	0.126
RRIRCRPPRLPRPRPRPLAMPRP	0.062
RRIRIRPPRLPRPRPRPSNTPRP	-0.515
RRIRGRPPRLPRPRPRPEMRPRP	2.35
RRIRFRPPRLPRPRPRPIWTPRP	-0.0298

Sequence	shrunken log2 fold change
RRIRLRPPRLPRPRPRPTGLPRP	0.177
RRIRWRPPRLPRPRPRPFPVPRP	-0.0948
RRIRKRPPRLPRPRPRPPIAPRP	0.464
RRIRVRPPRLPRPRPRPDNTPRP	-0.426
RRIRNRPPRLPRPRPRPKGVPRP	2.97
RRIRNRPPRLPRPRPRPYHYPRP	-0.722
RRIRLRPPRLPRPRPRPFKDPRP	-0.023
RRIRERPPRLPRPRPRPAEAPRP	-0.0209
RRIRARPPRLPRPRPRPVYTPRP	-0.159
RRIRERPPRLPRPRPRPSSSPRP	0.307
RRIRFRPPRLPRPRPRPNLDPRP	-0.18
RRIRFRPPRLPRPRPRPVYTPRP	-1.09
RRIRVRPPRLPRPRPRPMSCPRP	0.0534
RRIRWRPPRLPRPRPRPMGIPRP	0.0704
RRIRPRPPRLPRPRPRPHHIPRP	-0.544
RRIRNRPPRLPRPRPRPIWCPRP	-0.0833
RRIRLRPPRLPRPRPRPQASPRP	0.0594
RRIRPRPPRLPRPRPRPINEPRP	-0.54
RRIRERPPRLPRPRPRPDENPRP	-0.0287
RRIRFRPPRLPRPRPRPIPLPRP	-0.483
RRIRPRPPRLPRPRPRPGKHPRP	-0.141
RRIRSRPPRLPRPRPRPMKTPRP	0.0178
RRIRDRPPRLPRPRPRPIHIPRP	-0.734
RRIRCRPPRLPRPRPRPKPVPRP	0.179
RRIRVRPPRLPRPRPRPLSKPRP	-0.303

Sequence	shrunken log2 fold change
RRIRRRPPRLPRPRPRPGSIPRP	-0.0979
RRIRPRPPRLPRPRPRPVANPRP	0.495
RRIRHRPPRLPRPRPRPPEPPRP	0.113
RRIRHRPPRLPRPRPRPVCIPRP	-1.22
RRIRMRPPRLPRPRPRPIVTPRP	-0.00781
RRIRFRPPRLPRPRPRPSCNPRP	-0.714
RRIRFRPPRLPRPRPRPKISPRP	-0.596
RRIRRRPPRLPRPRPRPQSIPRP	-0.0196
RRIRPRPPRLPRPRPRPAQYPRP	0.0469
RRIRYRPPRLPRPRPRPRWGPRP	0.12
RRIRSRPPRLPRPRPRPTYGPRP	-0.303
RRIRDRPPRLPRPRPRPYNSPRP	-0.237
RRIRFRPPRLPRPRPRPHKMPRP	-0.154
RRIRGRPPRLPRPRPRPHRMPRP	-0.101
RRIRYRPPRLPRPRPRPMPKPRP	-0.0102
RRIRDRPPRLPRPRPRPTKNPRP	0.0799
RRIRWRPPRLPRPRPRPYTSPRP	-0.0806
RRIRWRPPRLPRPRPRPIGSPRP	-0.0153
RRIRERPPRLPRPRPRPLEWPRP	-0.0018
RRIRRRPPRLPRPRPRPEFHPRP	0.0566
RRIRFRPPRLPRPRPRPDDGPRP	-0.0366
RRIRNRPPRLPRPRPRPNPPPRP	0.143
RRIRGRPPRLPRPRPRPSYAPRP	0.316
RRIRWRPPRLPRPRPRPWELPRP	-0.0481
RRIRWRPPRLPRPRPRPLCFPRP	-0.101

Sequence	shrunken log2 fold change
RRIRVRPPRLPRPRPRPAHNPRP	-0.296
RRIRRRPPRLPRPRPRPTLCPRP	0.581
RRIRQRPPRLPRPRPRPTRNPRP	0.185
RRIRIRPPRLPRPRPRPDVFPRP	-0.115
RRIRDRPPRLPRPRPRPFEDPRP	0.265
RRIRLRPPRLPRPRPRPSSKPRP	-0.524
RRIRSRPPRLPRPRPRPRGMPRP	0.164
RRIRPRPPRLPRPRPRPRGNPRP	-0.16
RRIRWRPPRLPRPRPRPELKPRP	0.276
RRIRERPPRLPRPRPRPDNSPRP	-0.981
RRIRDRPPRLPRPRPRPQTQPRP	0.372
RRIRNRPPRLPRPRPRPKRMPRP	-0.056
RRIRTRPPRLPRPRPRPHRDPRP	0.129
RRIRGRPPRLPRPRPRPNHIPRP	-0.444
RRIRGRPPRLPRPRPRPSVGPRP	0.333
RRIRFRPPRLPRPRPRPWYLPRP	-0.549
RRIRTRPPRLPRPRPRPEFWPRP	0.445
RRIRFRPPRLPRPRPRPIHLPRP	-0.154
RRIRRRPPRLPRPRPRPAFTPRP	0.118
RRIRYRPPRLPRPRPRPDMCPRP	-0.0185
RRIRIRPPRLPRPRPRPIVEPRP	0.0786
RRIRIRPPRLPRPRPRPNTWPRP	-0.406
RRIRWRPPRLPRPRPRPEHMPRP	-0.122
RRIRIRPPRLPRPRPRPPWPPRP	0.397
RRIRARPPRLPRPRPRPFRIPRP	-0.169

Sequence	shrunken log2 fold change
RRIRMRPPRLPRPRPRPANTPRP	-0.0215
RRIRLRPPRLPRPRPRPAFSPRP	0.106
RRIRIRPPRLPRPRPRPRKMPRP	0.142
RRIRQRPPRLPRPRPRPCWKPRP	0.111
RRIRRRPPRLPRPRPRPTCLPRP	0.099
RRIRCRPPRLPRPRPRPWMNPRP	0.0105
RRIRDRPPRLPRPRPRPQMKPRP	-0.166
RRIRMRPPRLPRPRPRPKLHPRP	0.325
RRIRGRPPRLPRPRPRPYRIPRP	0.178
RRIRYRPPRLPRPRPRPLDTPRP	-0.429
RRIRERPPRLPRPRPRPSLMPRP	-0.459
RRIRQRPPRLPRPRPRPYLPPRP	-0.0206
RRIRVRPPRLPRPRPRPKGLPRP	-0.239
RRIRMRPPRLPRPRPRPGIEPRP	2.2
RRIRLRPPRLPRPRPRPQLTPRP	0.103
RRIRCRPPRLPRPRPRPWGDPRP	-0.142
RRIRARPPRLPRPRPRPCFRPRP	-0.0247
RRIRPRPPRLPRPRPRPHTLPRP	-0.195
RRIRWRPPRLPRPRPRPTWKPRP	0.261
RRIRSRPPRLPRPRPRPTQIPRP	0.048
RRIRYRPPRLPRPRPRPRGQPRP	0.0255
RRIRDRPPRLPRPRPRPSWEPRP	-0.00136
RRIRARPPRLPRPRPRPPFRPRP	0.977
RRIRDRPPRLPRPRPRPEIHPRP	0.597
RRIRQRPPRLPRPRPRPFSTPRP	0.0344
